Laboratory results published in patent publication US8642565B2, “Increase of immune response and targeting by antigens and/or drug linkage” (Wittycell, priority 2007, dated 2014).

B1: OVA covalently linked to PBS-6: Examples 2-4: ovalbumin peptide covalently linked to PBS-6 (Example 2 peptide VSGLEQLESIINFEKLTEWTS) (conjugate, UniProt P01012 2-386, looked up)
Ovalbumin: GSIGAASMEFCFDVFKELKVHHANENIFYCPIAIMSALAMVYLGAKDSTRTQINKVVRFDKLPGFGDSIEAQCGTSVNVHSSLRDILNQITKPNDVYSFSLASRLYAEERYPILPEYLQCVKELYRGGLEPINFQTAADQARELINSWVESQTNGIIRNVLQPSSVDSQTAMVLVNAIVFKGLWEKAFKDEDTQAMPFRVTEQESKPVQMMYQIGLFRVASMASEKMKILELPFASGTMSMLVLLPDEVSGLEQLESIINFEKLTEWTSSNVMEERKIKVYLPRMKMEEKYNLTSVLMAMGITDVFSSSANLSGISSAESLKISQAVHAAHAEINEAGREVVGSAEAGVDAASVSEEFRADHPFLFCIKHIATNAVLFFGRCVSP
modifications: covalently linked to glycolipid PBS-6
B2: OVA covalently linked to PBS-57 (conjugate, UniProt P01012 2-386, looked up)
Ovalbumin: GSIGAASMEFCFDVFKELKVHHANENIFYCPIAIMSALAMVYLGAKDSTRTQINKVVRFDKLPGFGDSIEAQCGTSVNVHSSLRDILNQITKPNDVYSFSLASRLYAEERYPILPEYLQCVKELYRGGLEPINFQTAADQARELINSWVESQTNGIIRNVLQPSSVDSQTAMVLVNAIVFKGLWEKAFKDEDTQAMPFRVTEQESKPVQMMYQIGLFRVASMASEKMKILELPFASGTMSMLVLLPDEVSGLEQLESIINFEKLTEWTSSNVMEERKIKVYLPRMKMEEKYNLTSVLMAMGITDVFSSSANLSGISSAESLKISQAVHAAHAEINEAGREVVGSAEAGVDAASVSEEFRADHPFLFCIKHIATNAVLFFGRCVSP
modifications: covalently linked to glycolipid PBS-57
B3: OVA covalently linked to PBS-14 (conjugate, UniProt P01012 2-386, looked up)
Ovalbumin: GSIGAASMEFCFDVFKELKVHHANENIFYCPIAIMSALAMVYLGAKDSTRTQINKVVRFDKLPGFGDSIEAQCGTSVNVHSSLRDILNQITKPNDVYSFSLASRLYAEERYPILPEYLQCVKELYRGGLEPINFQTAADQARELINSWVESQTNGIIRNVLQPSSVDSQTAMVLVNAIVFKGLWEKAFKDEDTQAMPFRVTEQESKPVQMMYQIGLFRVASMASEKMKILELPFASGTMSMLVLLPDEVSGLEQLESIINFEKLTEWTSSNVMEERKIKVYLPRMKMEEKYNLTSVLMAMGITDVFSSSANLSGISSAESLKISQAVHAAHAEINEAGREVVGSAEAGVDAASVSEEFRADHPFLFCIKHIATNAVLFFGRCVSP
modifications: covalently linked to glycolipid PBS-14

Tests used:
[1] = test system: SIINFEKL (SEQ ID NO:1) induced CD8+ T cell response; SINFEKL-loaded targets; assay: VITAL in vivo cytotoxicity assay, intravenous immunization (Example 1); set-up: species or system C57BI/6J CD45.2 female mice; details: 1 μg to 100 μg of Ova peptide alone, day 0, read out day 11
[2] = test system: OVA specific IgG1 antibodies; assay: Ovalbumin-specific IgG1 antibody titer after immunization (Example 4); assay type: in vivo, mice; details: 1 μg conjugate, intramuscular route, day 0 and day 14, samples 14 days after second immunization; compared with 50 μg of OVA alone (FIG. 4)
Protocol: (§1) The aim of this study was to evaluate IgG1 and IgG2a antibody response following immunization with ovalbumin in combination with different adjuvant covalently linked.
(§2) The sera tested were as follows:
(§3) Group 1; 6 mice immunized with 500 μg of ova protein with CFA/IFA (Positive control)
(§4) Group 2: 6 mice immunized with 50 μg of long ova peptide of sequence […] (SEQ ID NO:3; amino acids 316 to 338 of ovalbumin)
(§5) Group 3: 6 mice immunized with 50 μg of short ova peptide of sequence KISQAVHAAHA (SEQ ID NO:4; amino acids 323 to 333 of ovalbumin)
(§6) Group 4: 6 mice immunized with 1 μg PBS-6-OVA
(§7) Group 5: 6 mice immunized with 1 μg PBS-14-OVA
(§8) Group 6: 6 mice immunized with 1 μg PBS-57-OVA
(§9) All mice were immunized by intramuscular route at day 0 and day 14. All samples were collected 14 days following the second immunization and the IgG1 and IgG2a titers specific of ovalbumin were evaluated.

[3] = test system: OVA specific IgG2a antibodies; assay: Ovalbumin-specific IgG2a antibody titer after immunization (Example 4); assay type: in vivo, mice; details: 1 μg conjugate, intramuscular route, day 0 and day 14, samples 14 days after second immunization; compared with 50 μg of OVA alone (FIG. 5)
Protocol: as §1, §2, §3, §4, §5, §6, §7, §8, §9

[4] = test system: SIINFEKL (SEQ ID NO:1) induced CD8+ T cell response; assay: VITAL in vivo cytotoxicity assay, intramuscular immunization, OVA (Example 3); set-up: species or system C57BI/6J CD45.2 female mice; details: 1 μg conjugate, day 0, compared with mice treated with 50 μg of OVA alone (FIG. 3)
Protocol: Sixty-nine 9 week-old C57BI/6J CD45.2 female mice were used for immunisation. They were split into 14 groups: groups 1 to 5 included 3 animals, and groups 6 to 14 included 6 animals.
The in vivo cytotoxicity of SIINFEKL (SEQ ID NO:1) induced CD8^+ T cell response was evaluated by VITAL assay as described in Example 1.
The short ovalbumin peptide consists in the SIINFEKL sequence (SEQ ID NO:1; amino acids 257 to 264 of ovalbumin), the long ovalbumin peptide consists in the […] sequence (SEQ ID NO:2; amino acids 250 to 269 of ovalbumin) and the glycolipids used are PBS-6, PBS-14 and PBS-57.
The mice were vaccinated by intramuscular route at day 0 with the following solutions according to the different groups:
The read out was as described in Example 1.

[5] = test system: SIINFEKL-H2K^b specific CD8+ cells; assay: Detection of SIINFEKL specific CD8+ cells by FACS, H-2 Kb SIINFEKL pentamer and CD8 co-staining (Example 2); assay type: in vivo, C57BI/6J CD45.2 female mice; details: 1 μg conjugate, intramuscular route, day 0 and 14; compared with mice treated with 50 μg of OVA alone (FIG. 2)
Source text: Forty-eight 9 week-old C57BI/6J CD45.2 female mice were used for immunisation. They were split into 9 groups: groups 1 and 2 included 3 animals and groups 3 to 9 included six animals.
The ovalbumin peptide consists in the […] sequence (SEQ ID NO:2) and the glycolipids used are PBS-6, PBS-14 and PBS-57.
The mice were vaccinated by intramuscular route at day 0 and 14 with the following solutions according to the different groups:
Detection of SIINFEKL specific CD8+ cells was monitored by FACS following H-2 Kb SIINFEKL pentamer and CD8 co-staining.

Molecule | antigen-specific lysis (percent specific lysis) [1] | titer of IgG1 specific of ovalbumin [2] | titer of IgG2a specific of ovalbumin [3] | percentage of SIINFEKL-specific cytolytic activity in the blood [4] | percentage of SIINFEKL-H2K^b specific CD8+ in the blood [5]
Ova peptide: ovalbumine peptide of SIINFEKL sequence (SEQ ID NO:1), amino-acids 257-264 of ovalbumine [reference compound] | no antigen-specific lysis | – | – | – | –
B1 | – | higher titers | higher titers | stronger percentage | stronger percentage
B2 | – | higher titers | higher titers | stronger percentage | stronger percentage
B3 | – | higher titers | higher titers | stronger percentage | stronger percentage
